Experimental data published in the DeepSol protein solubility set.

assay: soluble on expression in E. coli; label from the status in PepcDB or PDB records

Row | Sequence | soluble on expression in E. coli
1 | MSTRLCEPSLRDDGAQRGTPASHGKWCDTGAFKLDETPSPVVANVSSTSDASFQFNRTPSPGKHQNHAADRSMWSLDDFVIIRKLDEGRFGKVYLAREKQSKCAVVLKCISKDMIRFHSLAHQLQREVELQEYAGRYHKNVLRLFAYFWDDVRIVLVLEYADSGTLQDLLDCYREKEQRSSLPDDKVRTILLQLLSALAFLHERDIIHRDVKPDNILFHGEKLLLADFSWAVRVNNSDPRYCRRHTVCGTLDYLAPEQVLKRGCTTKADLWAVGVVAYRMLCGFLPFEMLDARDVCSCIASGAIRYPSQLSPTARHFLQGLLRVDEALRFSCQEALNHPFMRGDCNCRISNRYIESKHRARAEEPVLQHQGSFDTTKNGTRWIQQKKESWCCSRAPTLNVPEPVHHTGTNCVANHSHNHKDMDKSTTLSCPSASDIVRVRATTERVRCPVDDYSGTSASLITISPLRSTECMQSLSNVSTPSIVSQTHSEWLHSASPISHTPVVAAAATSKCSRDDVGTSSYGVSYSGIRLHNSASDGSGTTTGQHHAQLGTSTHSSFAFAPPTSARYRRDISGYHRINGRGSSPSDHEEYEVASCALRLCFDDEDDADNNCSGALHAAASNRPKTLKSGVMMNGTAPPSHHKGSSYDVR | not soluble
2 | MSTSADYKINQQQIVCVASFLSKEGKTEALIAALASLIPDTRREAGCIRYELNVSRDEPRRVTFVEKFVDIAAFDEHCAKDAIQHYFHQVMPELVESFHVETYHQVIA | soluble
3 | MSTTIQYNSNYADYSISSYLREWANNFGDIDQAPAETKDRGSFSGSSTLFSGTQYAIGSSHSNPEGMIAEGDLKYSFMPQHTFHGQIDTLQFGKDLATNAGGPSAGKHLEKIDITFNELDLSGEFDSGKSMTENHQGDMHKSVRGLMKGNPDPMLEVMKAKGINVDTAFKDLSIASQYPDSGYMSDAPMVDTVGVVDCHDMLLAA | not soluble
4 | MSTVVDQEGNNKQQTVAVIGAGIIGINCALELQSLGYQVTLLDKEGIGLGCSKANAGHFATEQVFPLAEFSLLWQMPKLLFDPLGPVALSAKHFIKAIPWFMQFFNNMRPTLRNKNKKALQALNKNAIHHYTALLKAAEAEHLISLDGSLLVFETNDRTKVELMYQHYLAAGIAVKLLDKRQTLELEPNLSNNINYSLYFTDVAHTIDPLALSKTLAEFAMCKGMTFQQTAVTSVTQTQSGVTVEIDEQHLHVDHCVIACGAWSKKLLNGLNYHLPIEAERGYSLSLPISAAASALLSRPVASAERRFIITPMGKTLRLAGTVEYAGLNAPANYKRAEMLKGNAAYILKRLPENEEKQEAWMGCRPSLPDSLPVICQAPNHDKIFFALGHQHLGLTQGAITGKLIGQLVTGHSPEINIDPFCIRRFNLEHHHHHH | not soluble
5 | MSTYLIGDIHGCLDELLALLAQVNFDPQQDTLWLTGDLVARGPASLDVLRYVRSLGPAVRMVLGNHDLHLLAVYAGISRNKPKDRITPLLDAPDADELINWLRRQPVLQVDDQLKLIMAHAGITPQWDIETAKMCAREVEAVLSSDSYPLFLDAMYGDMPNNWSPELTGLARLRFSTNALTRMRFCFPNGQLDMICKDTPENAPAPLKPWFDLPRLVDPEYSIIFGHWASLEGKGVPEGIYGLDTGCCWGGDLTLLRWDDKRYFTQRAFKAEAEINNNNGFAAGEAVQH | not soluble
6 | MSVASLPECVKNFFPTEQLEFSSSITADEKPVLHEVFQKHSCFSQCGEMIDEVSKKHPELGKRLATVLEGNKKRLDGLSPAAVEYAKKLIHMVTTTLCSLTVGKPIDDADAKRLHQEFQSLSSEDQAALRKNNPDIKF | not soluble
7 | MSVIYKVVTRPSDPRVPNSPKKYYPHLITLGQSVNLKYIAQKMQGYSSLSIGDIKSVIQNFVEKMKEQLLEGKSVNIEGLGVFMLTACSKGADAAKDVNAKSVDSVRIFFQANKELRITKTATRADEKLDLISLDEYLKKLNASVTPNDPDDGENGGGGNEGGDEEAPDPTV | not soluble
8 | MSVLDISIIIANYNTEEFLRNCLNSIKSTVKNVKYEVIVTDNNSKDDSVTMIKNEFPWVKLIESKINGGFAYANNLAIKESSGKYIFLLNTDTVLLKDVIEKMVNYMDENKDVGLLGPKLLNRDMSHQTSVSGFPSFKREFYHIYKLKNILKIPILKKIIVAMSGKIGSKDVEQYMMNFKSIDEPREVQVLVGAALLVRRNVIDKIGMLDERYFMYYEEIDFCYQANKAGFKAVYYPNGEIIHYIGQAATKSRILEHHHHHH | soluble
9 | MSVNFSPCVLIPCYNHGAMMPGVLARLKPFNLPCIVVDDGSDATTQQQLDSLLAEQPGVTLIRLAENAGKGAAVMRGLQAAADAGFSHAVQVDADGQHAIEDIPKLLALAEQQPAALISGQPIYDDSIPRSRLYGRWVTHVWVWIETLSLQLKDSMCGFRVYPVAPTLQLAKHATIGKRMDFDTEVMVRLYWQGNTSYFVPTRVTYPLDGLSHFDALKDNVRISLMHTRLFFGMLPRIPSLLMRRSSCHWARQSEVKGLWGMRLMLLVWRLLGRTAFSALLYPVVGVYWLTASRARKASQDWLARVRQHQPQAAKLNSYQHFLRFGNAMLDKIASWRGELQPGRDVLFAPGAEAALDVRDPRGKLLLASHLGDVEVCRALAKIQGYKTINALVFSENAQRFKQIMQEMAPQAGINLMPVTDIGPETAILLKEKLDNGEWVAIVGDRIAVNPQRGGDWRVCWSSFMGQPAPFPQGPFILASILRCPVNLIFALRQHGKLHIHCESFADPLQLPRGERQQALQNAIDHYAARLEHYALQSPLDWFNFFDFWQLPEIQDKE | not soluble
10 | MSVNPFFDPRTLGEMVFGDNGRLDREYVPISENNDDLSDCRNEIVDTHEKFSVNLNVPDVKPEELKINLEGRKLSIKAEHQEIENDNISTTQTYSKSIVLPEDVDVTHLSSNLSEDGKLLIEVPKVEAKKTNFFGFLSKFRCMPESQ | not soluble
11 | MSVSNKLGDLASKVYENVLLEEVKKYPRPRHIGIITDGNRRYARNVGISENEGHVKGKEKVEEVVDWCMELDIRIVTFYAFSTENFRRSPEEVDFLFHLIDNAFKSLLKDERVYKNRINVKVIGNLSILPAYLRQTIHIVEETTKNFNNYQLNLAIGYGGREEILDAIKRITRDAMDGKLNIDELDEEKFRMYLYDGRIPDPDLILRTSGEERISNFLLWQSAYSELYFSDVYWPEFSKLDFLRAIYSYQRRQRRFGR | soluble
12 | MSVWASRLKAMGLLENLLNRYTPRTSGTPVFAVIDTGTTGFNKRYDHIIELAAVRADAYFKPVDSWHALLNPDTNAVSTTRGTPPPTSALNPAVGVTRSEAS | not soluble
13 | MSWREKLGMIHIYTGNGKGKTTAALGLALRMLGSGGKVIIIQFMKAPKVYGEYFMAEKCNFKIESYGLPKFVHGKPDEEDIKAAKRALERAREVVKSGEWDLVILDEICVALGFGMLNIEEVKELIQEKAKNTELVLTGRYCPKELYELADYVTEMREIKHPYQRGILARRGVEY | soluble
14 | MSYKGSSIPVCSRISSLYFFSVYLQDLADMEDRTSTSRCSSTTRIKPTKIAGFGTVPLLSSAGTNQSVLSTKSAKSCLSNTIAASMTEPQVSMTQVDRMYEDNLARKKRSMVAVSEFNKIYGQEYHPPSSSESTRSFYENIDAVYPSSKASESSSSSASTGSSDNRKDIEKWEKLDSEAESDIELFIKVSDCFD | not soluble
15 | MSYPSLFAPLDLGFTTLRNRVLMGSMHTGLEEHPDGAERLAAFYAERARHGVALIVTGGIAPVPSGVVMTGGAMLNDASQLTPHRVVTDAVHAQGGKIALQILHTGRYSYQPHLVAPSAIQAPINRFMPHELTHDEILQLIDDFAHCAQLAREAGYDGVEVMGSEGYLINEFLTRRTNHRDDEWGGDYASRMRFAVEVVRAVRQRVGNDFIIIYRLSMLDLVENGGTFDETVQLAQAIEAAGASLINTGIGWHEARIPTIATPVPRGAFSWVTRKLKGHVSVPLIATNRINDPQVAETILTRGDADMVSMARPFLADAEFLTKAQSGRADEINTCIGCNQACLDRIFIGKVTSCLVNPRACHETHMPITPAIRKKNLAVVGAGPAGLAFAINAASRGHHVTLFDAQSEIGGQFTIARQIPGKEEFYETLRYYRRMIDVTGVTLKLNQRVNAEDLQPFDEAILACGIVPRRPPIDGIDHPKALTYLEVLRDKAPVGKRVAIIGCGGIGFDTAMYLSQHGESTSQNIAEFCTEWGIDTSLQQAGGLRPEGPRLARSPRQIVMLQRKTSKPGEGLGKTTGWIHRATLLARGVKMIPAVSYQKIDDDGLHLLIGGEPQLLEVDHVVICAGQEPRRELADPLRAAGKTVHLIGGCDVAMELDARRAIAQGTRLALEI | not soluble
16 | MSYPWSNKNGEAASSSKTTVAPPLSPPRYEKVLDFSTLDTQRHRYEVRDQANQRAVVSSAKAESSMIDKFCKENTRIQTNPGIDLPDDYGTDAIVANAIGDQRIVNNLKCVHVTTFNAVQQMSIQVIREGRGLVVEAPTGIGKTYAFLIPAIEAALKNRQSNCFEYTKPSPSILIMASTSALVDQLFNRCELILGLQCMDNVEPIRDIKIDKLVANHPFTKGQCDIAFCTIGKLKATIECGDVCLDNLKTIILDEADKMIDNCAFGPDINWILDQLKEENLENLQSCFFSATYNKNANGTIALTVLQMRMLGEDDPWSVIICPRMSGYITQRVVRVGRGRPNDIRSHPWVIKMGIIRKLIDDDLKETGCSKDGPYNETIAIFCETVQRVTQVTMALRQLGYNFKPVCSMITKNQQLVTVNDLEFRKIHGVVCTNILARGIDVSSVKHTIIMEMSADFDTYKHRIGRVGRDGCGGKSTVLVEHHQLQGGPASNVIEQLYNFMKESKEDIPQWMQEWIVARRNNNIDSWA | not soluble
17 | MSYVTTKDGVQIFYKDWGPRDAPVIHFHHGWPLSADDWDAQLLFFLAHGYRVVAHDRRGHGRSSQVWDGHDMDHYADDVAAVVAHLGIQGAVHVGHSTGGGEVVRYMARHPEDKVAKAVLIAAVPPLMVQTPGNPGGLPKSVFDGFQAQVASNRAQFYRDVPAGPFYGYNRPGVEASEGIIGNWWRQGMIGSAKAHYDGIVAFSQTDFTEDLKGIQQPVLVMHGDDDQIVPYENSGVLSAKLLPNGALKTYKGYPHGMPTTHADVINADLLAFIRS | soluble
18 | MTADANKSESLLCMDKAREAIKSGDTDKARRMLLKAKKLDPGQNIEFLTKKIDDMTNNTSSSSQTSSSRASEERSYAHDDHYDDPNLRNRKARSPVKKNGKTEPEPKQRSASRTPKLGVDYTSEQKELVERIRHCKDYYEILKIDKKASDDDIRKEYRKLALKLHPDKCRAPHATEAFKALGNAYAVLSDTDKRRQYDQYGAEAANSHTPTTRRRGGGHGAFFEHDYAHGFEAEFTPEEIFNMFFGGGFPTEQVRRRARYAQQQQYHHYEQQQSPYGPLLQLLPLIAIMVIGLLAQLMVGEPAYSLHQTSKFTIKRLTADLRVPYFVRTDFETSYRGRIRQVEQQVEDDYIQNLRMNCYKEQNLKETKLYRARWMRDEAMMRDAERTPLPSCIRLNEIYSH | soluble
19 | MTADRPALRTGDRDTRLSFGSNLSSFTDYLRGHAPELLPENRIGHRSHSTRGGDGMESGDLAPHGTTIVALTYKGGVLLAGDRRATQGNLIASRDVEAVYVTDEYSAAGIAGTAGIAIELVRLFAVELEHYEKIEGVPLTFDGKANRLASMVRGNLGAAMQGLAVVPLLVGYDLDADDESRAGRIVSYDVVGGRYEERAGYHAVGSGSLFAKSALKKIYSPDSDEETALRAAIESLYDAADDDSATGGPDLTRGIYPTAVTITQAGAVHVSEETTSELARRIVAERTEQGGSAR | soluble
